From the supplement of paper PMC9170038 come the findings set out here.

In the data set the test system is MS2 coat protein. As to the kind of experiment: apparent KD of MS2 coat protein; higher = weaker reporter binding. The settings on record: Eterna round: R107. As to the method: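 RNA-MaP round R107: designed RNA switches with theophylline, tryptophan, arginine or FMN aptamers are transcribed on-chip within common flanks. They are titrated with SNAP-549-labelled MS2 coat protein in RNA-MaP buffer (100 mM Tris pH 7.5, 80 mM KCl, 4 mM MgCl2), without ligand or with the indicated ligand. Median apparent KD per design.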

Where [1] appears, read: input ligand: theophylline 20 uM.
Where [2] appears, read: input ligand: theophylline 2 mM.
The mark [3] stands for this setting: input ligand: tryptophan 2.4 mM.

In the case of “UUCAUGAGGAUUGAUACCAGCCACCAACAUGAGGAACUUACAUGAGGAUCACCCAUGUGAGGCCCUUGGCAGCAAGCAUACAUGA [Exclusion Theophylline B 3]”, the “apparent KD of MS2 coat protein” value by setting is: (input ligand: arginine 13.2 mM) 10.1 nM; (input ligand: none) 10.6 nM; under setting [1], 16.7 nM; under setting [2], 48.5 nM; under setting [3], 11.5 nM.

Turning to “ACAUGAGGAUCACCCAUGUGGCGUCUUGAUACCAGACCCGCACUAGUCCCUUGGCAGCAACUACGUGAGGGUCGCCCAUGUGUAG [zxdullin]”, the “apparent KD of MS2 coat protein” value is 32.4 nM (input ligand: arginine 13.2 mM), 50.8 nM under setting [1] and 34.4 nM under setting [3].

For “CUACAUUUGUAGAAACCGGUCACCAUUACUCGAGGACCGGUACGGCCGCCACUCGUGUCAUGUGAUACAUGAGGAUCACCCAUGU [Tryptophan A 10]”, the “apparent KD of MS2 coat protein” value (input ligand: arginine 13.2 mM) was 21.7 nM, the “apparent KD of MS2 coat protein” value under setting [1] turned out to be 26.2 nM and the “apparent KD of MS2 coat protein” value under setting [2] came to 27.1 nM.

On to “UGGCAAGAGGGAAGGAGCGUCAGCUGAGUCACAUGAGGAUCACCCAUGUCGCACAUAGUGUGACAGGUAGGUCGCCCUCUGCCGU [Vesosocera]”, for which the “apparent KD of MS2 coat protein” value by setting is: (input ligand: arginine 13.2 mM) 70 nM; (input ligand: none) 122 nM; under setting [1], 152 nM; under setting [2], 207 nM; under setting [3], 122 nM.

For the sequence “UAUCCACAUGAGGAUCACCCAUGUAGGGAAGGAGCGGUGAUUUCACCAGGUAGGUCGCCUUACUGAGGAGAACCGGUGGAAUCGU [Exclusion - Arginine A (Freestyle 30)]”, the “apparent KD of MS2 coat protein” value (input ligand: arginine 13.2 mM) stood at 45.5 nM; the “apparent KD of MS2 coat protein” value (input ligand: none) was 25.9 nM; the “apparent KD of MS2 coat protein” value under setting [1] was determined as 40.6 nM; the “apparent KD of MS2 coat protein” value under setting [2] was found to be 75.9 nM; the “apparent KD of MS2 coat protein” value under setting [3] was 19.8 nM.

Consider “CGAUAUAAGACGGCCGCCACUAUUAAGUAACAAAAUAAACAUGAGGAUCACCCAUGUACAUGGGAUAGGACCGGGUCCAAUAACG [A1]”, for which the “apparent KD of MS2 coat protein” value by setting is: (input ligand: arginine 13.2 mM) 48.3 nM; under setting [1], 163 nM; under setting [2], 166 nM.

As to “UGCACCAUAAUCAUGUUGGUGCUAGGUGAUACCAGCAUCGAAAGAUGCCCUUGGCAGCACCAACAUGAGGAUCACCCAUGUAAUA [(MT)''-(M)'-(T')-(Theo)-(Ms2)_Design1/22_3]”, the “apparent KD of MS2 coat protein” value turned out to be 60.1 nM (input ligand: arginine 13.2 mM), 351 nM under setting [1] and 57.9 nM under setting [3].

Turning to “UGGCAGCACCUCAUGUGCUGCCAAGGUGAUACCAGCAUCGAAAGAUGCCCUUGGCAGCACCAACAUGAGGAUCACCCAUGUAAUA [(MT)''-(M)'-(T')-(Theo)-(Ms2)_Design1/22_7]”, the “apparent KD of MS2 coat protein” value came to 26.8 nM (input ligand: arginine 13.2 mM), 374 nM under setting [1] and 217 nM under setting [3].

Take “UAAAUAUUACUGGGUAAGGUAUAAAUAGAUACCAGCCAGAUAACUGGCCCUUGGCAGCUAAACAUGAGGAUCACCCAUGUAUAAU [TheoAS 20 #OpenEnded #Ms2Late]”: the “apparent KD of MS2 coat protein” value runs as follows: (input ligand: arginine 13.2 mM) 23.5 nM; under setting [1], 44 nM; under setting [3], 33.2 nM.

In the case of “ACGUCAACCCUUAUGUUGAUGCAAGACGAUACCAGCCUGGAUACAGGCCCUUGGCAGCGUCAACAUGAGGAUCACCCAUGUAAUA [(T)''-(MT)'-(Theo)-(Ms2)]”, the “apparent KD of MS2 coat protein” value was found to be 32.2 nM (input ligand: arginine 13.2 mM), 261 nM under setting [1] and 45.3 nM under setting [3].

In the case of “AUAAAAGGGUUAUAUAGAUUUAGGUCCAGUCGAGGACCGGUACGGCCGCCACUCGUACUGAAAUACAUGAGGAUCACCCAUGUUA [JR_SSTryptoA_Sub006]”, the “apparent KD of MS2 coat protein” value (input ligand: arginine 13.2 mM) is 16.4 nM, the “apparent KD of MS2 coat protein” value under setting [1] is 25.8 nM and the “apparent KD of MS2 coat protein” value under setting [2] came out at 22.9 nM.

With “GGUUAGGUUUUUGAUACCAGCUAUUGGUGUCAUCUGAGGAUCACCCAGGUCUUGUGUUUUAGCCCUUGGCAGCAAAAGUUUAGUC [SSTheo B #28]”, the “apparent KD of MS2 coat protein” value worked out at 72.6 nM (input ligand: arginine 13.2 mM); 88.4 nM (input ligand: none); 118 nM under setting [1]; 94.1 nM under setting [2]; 108 nM under setting [3].

“GCUGCUUUGGGAAGGAGCGCUGCGGUAUUGUGGCGGACAUGAGGAUCACCCAUGUGCCUGCAGCAGGUAGGUCGCUUAGGGCAGC [EAP NP+V+V2 #17]”: the “apparent KD of MS2 coat protein” value by setting is: (input ligand: arginine 13.2 mM) 54 nM; (input ligand: none) 68.8 nM; under setting [1], 92 nM; under setting [2], 79.8 nM; under setting [3], 58.4 nM.

Consider “ACAUGAGGAUCACCCAUGUGCCGUCUUGAUACCAGACCCGAAGUAGUCCCUUGGCAGCAACUACGUGAGGGUCGCCCAUGUGUAG [5kullin]”, for which the “apparent KD of MS2 coat protein” value (input ligand: arginine 13.2 mM) was 16.1 nM; the “apparent KD of MS2 coat protein” value (input ligand: none) was determined as 14.5 nM; the “apparent KD of MS2 coat protein” value under setting [1] was determined as 22.2 nM; the “apparent KD of MS2 coat protein” value under setting [2] turned out to be 16.7 nM; the “apparent KD of MS2 coat protein” value under setting [3] was 13.7 nM.

For the sequence “ACGUUCGCGGUAUCCAACCGGUUGUACAAACGAGGACCGGUACGGCCGCCACUCGUGAUUGUACAUGAGGAUCACCCAUGUGGCA [theeternabot_exclusion_MS2_Trp_A_28]”, the “apparent KD of MS2 coat protein” value reads like this: (input ligand: arginine 13.2 mM) 18.7 nM; under setting [1], 34.1 nM; under setting [2], 28.1 nM.

Regarding “UGACAUUGCUCAGAUACCAGACAUGAGCAUCAGCCAUGUACCGAGAGUACAUGUUAAAGUGUCCCUUGGCAGCUGAGCAAUGUCU [Mod of Eli's TheoBX5 #AlternateMS2 v4]”, the “apparent KD of MS2 coat protein” value was determined as 116 nM (input ligand: arginine 13.2 mM); 328 nM (input ligand: none); 640 nM under setting [1]; 371 nM under setting [2]; 404 nM under setting [3].
